Molecular target: CTLA4 CD3 zeta on the 58 α-β-CTLA4 CD3 zeta expressing cell line (human)
Assay: cell-based or functional assay

Sequence of CTLA4 CD3 zeta on the 58 α-β-CTLA4 CD3 zeta expressing cell line (human) (P16410 36-161): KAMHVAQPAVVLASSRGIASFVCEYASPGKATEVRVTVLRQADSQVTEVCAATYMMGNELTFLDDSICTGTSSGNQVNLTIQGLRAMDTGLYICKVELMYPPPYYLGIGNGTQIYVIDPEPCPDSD

EC50 of NK92 cell-mediated specific lysis (calcein release) of 58 α-β-CTLA4 CD3 zeta cells [ng/mL] | Binder
0.13 | ipilimumab (antibody, human IgG1, kappa, V domains shown) VH: QVQLVESGGGVVQPGRSLRLSCAASGFTFSSYTMHWVRQAPGKGLEWVTFISYDGNNKYYADSVKGRFTISRDNSKNTLYLQMNSLRAEDTAIYYCARTGWLGPFDYWGQGTLVTVSS VL: not shown
0.0056 | non-fucosylated ipilimumab (antibody, human IgG1, kappa, V domains shown, non-fucosylated (no fucose on the Asn297-linked oligosaccharide)) VH: QVQLVESGGGVVQPGRSLRLSCAASGFTFSSYTMHWVRQAPGKGLEWVTFISYDGNNKYYADSVKGRFTISRDNSKNTLYLQMNSLRAEDTAIYYCARTGWLGPFDYWGQGTLVTVSS VL: not shown

— patent US10196445 (Bristol-Myers Squibb, dated 2019)
